Columns and labels:
platelet GP1bα = experiment: Platelet pause times and translocation velocities on immobilized A1 under shear flow, parallel-plate flow chamber (Example 1); format: cell-based, human; conditions: as a function of shear rate
Source text: To understand the effect of the N-terminal peptide on the function of the A1-domain of vWF, the protein was expressed with (A1-1238) and without the N-terminal peptide (A1-1261). The inventor used a flow chamber to measure the dynamics of platelet interactions with A1-1238 and A1-1261. Each domain variant was immobilized on glass slides with a modified Cu^2+ chelating chemistry that enabled surface capture via the N-terminally fused histidine tag. This method ensured reproducible capture of the proteins eliminating possible structural issues associated with nonspecific immobilization on plastic or glass. The slides were completely inert to platelets. Next, 1 mL of citrated whole blood followed by Tris buffered saline was perfused at low shear to enable platelets to attach to the surface immobilized domains. After red cells were perfused away with buffer, the translocation of the remaining attached platelets over the surfaces was recorded at each shear rate and the velocities and pause times calculated from the coordinate data of each platelet on the surface as described in the methods. […] In addition, the translocation velocities were increased for A1-1238 relative to A1-1261. To determine if this N-terminal sequence could inhibit the catch bond when free in solution, the inventor incubated surface immobilized A1-1261 with excess free peptide and added the free peptide to 1 mL of whole blood and to our perfusion buffer and performed the assay.
Determination of platelet pause times. Determination of platelet pause times A Glycotech† rectangular parallel-plate flow chamber was mounted to slides with a chelated Cu 21 surface obtained from Microsurfaces Inc. # to which the A1-1261 and A1-1238 domains in TBS were immobilized by the 63His-Tag. Citrated whole blood (1 mL) obtained from informed consent of healthy donors with approval from the Baylor College of Medicine institutional review board followed by buffer was perfused through the chamber at 300s21 for A1-1261 and 700s21 for A1-1238 shear rate to attach platelets to the surface immobilized proteins using a syringe driven variable flow rate pump. The shear was increased incrementally and 1 min movies were recorded at 25 frames/s in phase contrast with 232 pixel binning on a Zeiss Axiocam MRm camera attached to a Zeiss Axio Observer D1 inverted microscope. Tracking analysis was performed using Mediacybernetics ImagePro Premier§. The resulting X-Y coordinate data for each platelet track was differentiated into instantaneous velocities using a Savitzky-Golay algorithm (Savitzky:1964) with a five data point window size and a second-order polynomial implemented into a Mathamatica notebook. These platelet tracks were retained for statistical analysis if the platelet was present for at least 1 s and travelled a total distance greater than 1 lm. Distance travelled in pixels was converted to lm given the camera pixel size=6.45 μm^2, pixel binning, and microscope magnification=400×. Pause times were determined by the amount of time (seconds) a platelets velocity was =0±0.13 μm/s, within the noise. Pause times for all platelet tracks are reported as the mean of the medians. Examples of this analysis for individual platelets and for multiple platelets are provided in the Supporting Information.
Frame by frame platelet trajectory analysis. Tracking coordinates of individual platelets in units of pixels were exported from ImagePro Premier as a text file and imported into a Mathematica notebook that calculates a Savitzky-Golay first derivative of the total distance traveled over time (Savitzky:1964). The distance was calculated from the X and Y coordinates with the following equation.
Pause times were determined from the length of time the platelet velocity remained within 0±4 pixel/sec=0.129 μm/sec as illustrated in FIG. 8B. Median pause times were calculated from velocity time profiles for all platelet tracks, stored in a list and translated to histograms for multiple platelets. […]

[1] = Urea-induced unfolding monitored by CD at 222 nm (Example 1); format: physicochemical; conditions: 25° Celsius, native to intermediate transition
Procedure: A1-1261 and A1-1238 were chemically unfolded with urea in order to compare the obtained thermodynamic parameters. The unfolding was monitored at 25° Celsius by CD at λ=222 nm, FIG. 3B. For both proteins, unfolding through an intermediate state was observed, as has been previously reported (Auton:2009). The thermodynamic parameters are illustrated in the insets of FIG. 3B and listed in the Supplement Table 2. Relative to A1-1261, A1-1238 has a marginal loss in unfolding cooperativity (+0.55±0.38 kJ/mol/M) of the transition and the midpoint, cm, of A1-1238 is increased by +0.27±0.04 M. These two contributions to the ΔG^0 cancel each other so that the N-terminal peptide is neither stabilizing nor destabilizing the conformational transition.
Isothermal urea induced unfolding of A1-1261 and A1-1238 at 25° Celsius was monitored via CD at λ=222 nm using a quartz cuvette with a path length of 1 mm and a protein concentration of 10 μM after an overnight equilibration. CD-signal was averaged for 10 min, corrected for the corresponding CD-signal of the buffer and converted into mean molar ellipticities per amino acid residue (θMRW).
Isothermal urea unfolding was analyzed using a three state reversible model (N<->I<->D) as previously described (Auton:2009, Auton:2007). All thermal unfolding transitions were analyzed according to the irreversible models provided in the Supporting Information. […]

[2] = Acrylamide quenching of tryptophan fluorescence (Stern-Volmer); format: physicochemical
Procedure: This was also confirmed via acrylamide induced tryotophan fluorescence quenching performed with an excitation wavelength of 295 nm.
Initially a quenching determination was performed with disulfide-intact A1 at 20° Celsius and at 1° Celsius in order to distinguish between static and collisional quenching. […] Clear evidence for collisional quenching could be obtained for the A1-domain since the Stern-Volmer constant decreased from 2.6±0.03 to 2.2±0.03 M−1, FIG. 16A, ruling out a static quenching mechanism.
Acrylamide quenching of tryptophan was performed using an excitation wavelength of 295 nm. After the addition of a certain amount of buffered acrylamide solution the protein solution was equilibrated for ˜5 min and then a fluorescence spectrum between 320 and 400 nm was recorded. Stern-Volmer constants were determined from the fluorescence intensity at 359 nm using the Stern-Volmer equation as described by Lakowicz (Lakowicz:2006)
where KD is the Stern-Volmer quenching constant and KD-1 is the concentration of acrylamide at which F0/F=2 and 50% of the fluorescence intensity is quenched.

A1-1238: Recombinant human vWF A1 domain, amino acids Q1238-P1471, with N-terminal 6×His-Tag, disulfide intact
Platelet translocation velocities on immobilized domain (comparison) (platelet GP1bα): increased
Change in midpoint cm relative to A1-1261 [1]: +0.27±0.04 M
Change in unfolding cooperativity (m-value) relative to A1-1261 [1]: +0.55±0.38 kJ/mol/M
Stern-Volmer constant ([2]; 2 M GdnHCl): 6.0 ± 0.1 M⁻¹
Stern-Volmer constant ([2]; buffer, 1° Celsius): 2.2 ± 0.03 M⁻¹
Stern-Volmer constant ([2]; buffer, 20° Celsius): 2.6 ± 0.03 M⁻¹
